Reference: the nanobody polyreactivity screen of Harvey et al. (2022)

test: yeast display, Sf9 membrane polyspecificity reagent, FACS + sequencing; frameworks hold sequencing errors
Method in brief: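 Synthetic nanobody libraries on Saccharomyces cerevisiae BJ5465 were galactose-induced for 36–48 hours, stained 1 hour at 4 °C with 10% biotinylated, detergent-solubilized Sf9 membrane reagent and enriched on streptavidin microbeads. FACS then separated cells into low and high (top ~1%) gates by anti-HA (expression) and streptavidin (reagent binding) fluorescence. Genes were colony-PCR amplified, MiSeq 2 × 250 sequenced and CDR-length filtered. A clone's polyreactivity label is that of its gate of origin.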

Sequence	polyreactivity (PSR sort gate)
QVQIVESGGGLVQAGGSLRLSCAASGITFVGNAMVWYRQAPGKERELVAVISRGDSTNYADSVKGLFTISRDNAKNTVYLQMNSLKPEDTAVYYCAADGSRAGQEGNDYWGQGTQVSVSS	low polyreactivity
QVQIVESGGGLVQAGGSLRLSCAASGNIFDRYAMGWYRQAPGKERELVAGITWSGGSTYYADSVKGRFTISRDNAKNTVYLQMNSLKPDDTAVYYCGQANYYWGLGTQVTVSS	low polyreactivity
QVQIVESGGGLVQAGGSLRLSCAASGRIFDGYAMGWYRQAPGKERELVAAISLSDGSTYYADSVKGRFTISRDHAKNTVYLQMNILKPEDTAVYYCAARVQHYLATDDYWGQGTQVTVSS	low polyreactivity
QVQIVESGGGLVQAGGSLRLSCAASGRIFGFNAMAWYRQAPGKERELVAAISWSSGRTYYADSVKGRFTISRDNAKNTVYLQMNSLKPEDTAVYYCAADQWGGGDDYWGQGTQVTVSS	high polyreactivity
QVQIVESGGGLVQAGGSLRLSCAASGRIFVVNDMGWYRPATGKERELVAAINSGGRTNYADSVKGRFTISRDNAKNTVDLQMNSLKREATAVYFCNAKRTGPWFLHVPVYYWGQGTQVTVSS	low polyreactivity
QVQIVESGGGLVQAGGSLRLSCAASGRIFYKNAMGWYRQAPGKERELVAAISNVGSTYYADSVKGRFTISRDNAKTTVYLQMNSLKPEDTAVYYCNKRIYHLFTYDFWGQGTQVTVSS	high polyreactivity
QVQIVESGGGLVQAGGSLRLSCAASGRILWFYAMGWYRHAPGKERELVAAITDSGGSTYYADSVKGRFTISRDNAKNPVYLQMNSLKPEDTAVYYCAADGDRYISGGGLAHYDYWGQGTQVNVSS	low polyreactivity
QVQIVESGGGLVQAGGSLRLSCAASGRTFRANAMGWYRQAPGKERELVAAIRTGTRTYYADSVKGRFTISRDNANNTVYFQMNSLKTVDSAVYYCAARYYHPYSHGYWQERDYWGQGTKVTVSS	high polyreactivity
QVQIVESGGGLVQAGGSLRLSCAASGRTFYFYVMGWYRQAPGKERELVAAISWSGTSTYYADSVKGRFTISRDNAKNTVYLQMNSLKPEDTAVYYCNGITRYDYWGQGTQVTVSS	low polyreactivity
QVQIVESGGGLVQAGGSLRLSCAASGRTFYLNAMGWYRQAPGKERELVAANRFSGGSTYYADSVKGRFTISRDNAQNTVYLQMNSLKPEDTAVYYCIAGADHALYPTVSEYGYWGQGTQVTVSS	low polyreactivity
QVQIVESGGGLVQAGGSLRLSCAASGSIFARMAMGWYRQAPGKEWELVAAITTGGITNYADSLKGLFTISRDNAKNTVYLQMNSLKPDDTAVYYCAATSWRYQQSTRYKGRRYYSWGQGTQVTVSS	high polyreactivity
QVQIVESGGGLVQAGGSLRLSCAASGSIFQGNPMGWYRQAPWKEREFVAAISWSGDSTYYADSVKGRFTISRDNAKYSVYLQMNSLKTEDTAVYYCGADPWDIYRRLSPGDHDYWGQCTQVTVSS	low polyreactivity
QVQIVESGGGLVQAGGSLRLSCAASGSIFQGYAMGWYRQAPGKERELVAAITNRGGNTYYADSVKGRFTISRDNAKYSVYLQMNSLKPEDTAVYYCAADPRYSHSFSGYYDYWGQGTQVTVSS	high polyreactivity
QVQIVESGGGLVQAGGSLRLSCAASGSIFSRNVMGWYRQAPGKERELVAAISRSGGRTYYADSVKGRFTISRDYAKNTVYLQMNSLKPEDTAVYYCNRDIGGTSVLDDYWGQGTQVTVSS	low polyreactivity
QVQIVESGGGLVQAGGSLRLSCAASGSIFVWYAMGWYRQAPGKERELVARITSGGRTNYADSVKGRFTISRDNAKNTVYLQMNSLKPEDTAVYYCAAGRVSWSPYYYWGQGTQVTVSS	high polyreactivity
QVQIVESGGGLVQAGGSLRLSCAASGSIFYRYAMGWYRQAPGKERQLVAAISSGGTTSYADSVKGRFTISRDNAKNTVYLQMNSLKPEDTAVYYCAAFAYGYRYKTYDYWGQGTQVTVSS	high polyreactivity

Sequence	polyreactivity (PSR sort gate)
QVQIVESGGGLVQAGGSLRLSCAASGSTFDGNAMGWYRQAPGKERELVATINSDDSKNYSDSVKGSFTISRDNAKNTVYLQMNSLKPEDTAVYYCAAVVSVPELYDYWGQGTQVTVSS	low polyreactivity
QVQIVESGGGLVQAGGSLRLSCAASGSTFFANTMGWYRQAPGKERELVAAISWSSVRTYYADSVKGRFTISRDHAKNTVYLQMNSLKPEDTAVYYCAAYSRFRYDYWGQGTQVTVSS	high polyreactivity
QVQIVESGGGLVQAGGSLRLSCAASGSTFGGNAMGWYRQAPGKERELVASITSSGGSTYYADSVKGRFTISRDNAKNTVYLQMNSLKPEDTAVYYCAAGKWYRSPWKYDYWGQGTQVTVSS	low polyreactivity
QVQIVESGGGLVQAGGSLRLSCAASGSTFKWYAMGWYRQSTGKERQLVAAITSTDSTTYADSLKGRFTISRDNAKNTVYLHMNSLKPEDTAVYYCNRLYYHWYGGLDYWGLGTQVTVSS	high polyreactivity
QVQIVESGGGLVQAGGSLRLSCAASGSTFLSNAMGWYRQAPGKERELVATISFSGATYADSVKGRFTIARDNAKNTVYLQMNSLKPEDTAVYYCNRATLNYSGKGDTAYDYWGQGTQVTVSS	low polyreactivity
QVQIVESGGGLVQAGGSLRLSCAASGSTFSVYAMGWYRQAPGKDRELVVAIRSSGGSTYYAHSVKGRFTISRDNAKNTVYLQMNSLKPEDTAVYYCATRIIVGSYRYDYWGQATQVTVSS	low polyreactivity
QVQIVESGGGLVQAGGSLRLSCAASGSTFWYNAMGWYRQAPGKERELVAAITWTGDGTYYADSVKGRFTISRDNAKNTVYLQMNSLKPEDTAVYYCAAAYFQWSTSIVGLDAGYDYWGQGTQVNVSS	low polyreactivity
QVQIVESGGGLVQAGGSLRLSCAASGSTFYRNAMGWYRQAPGKERELVAAIRWTGGNTYYADSVKGRFTISRDNAKNTVYLQMNSLKPEDTAVYYCAARSPLYGHGYWGQGTQVTVSS	high polyreactivity
QVQIVESGGGLVQAGGSLRLSCAASGSTVQYYAMGWYRQAPGKERELVAAISYTGGSTYYADSVKARFTISRDNAKNSVYLEMSSLKPEDTAVYYCAAGRRGSDTGTEYYWGQGTQVTVSS	high polyreactivity
QVQIVESGGGLVQAGGSLRLSCAASGSTYDHYTLGWYRQAPGKERELVAAINRIADSTYYADSVKGRFTNSRDNQKNTVYVQMTSLNPEDTAVYYCAARQFVYSSRIILYDYWGHGTQVTVSS	high polyreactivity
QVQIVESGGGLVQAGGSLRLSCAASGTFARYAMGWYRQAPRKERELVAAITRRGGNTYYADSVKGRFSISRDNAKNTVYLPMNSQKPEDTAVYYCAILGEDTNGYWGQGTQVTVSS	high polyreactivity
QVQIVESGGGLVQAGGSLRLSCAASGYIFIVYTMGWYRQAPGKERELVAAISSGGITDYADSVKGRFTLSRDNAKNTLYIQMTRLKPEDTAVYYWGQGTQVTVSS	low polyreactivity
QVQIVESGGGLVQAGGSLRLSCAASVRTFGRYVMGWYRQAPGKERELVAAISSGGRTYYADSVKGRFTISRDNAKNTVYLQMNSLKPEDNAVYYCAVYVAYLYSYYYWGQGTQVTVSS	low polyreactivity
QVQIVESGGGLVQAGGSLRLSCAPSGRIYGPYAIGLYRQEPGKERELDAAIRSGGSTNYADSVKGRFTISRDNAKNTVYLQMNSLNPEDTAVYYCNAVRHTYGYYSWGQGTQVTVSS	high polyreactivity
QVQIVESGGGLVQAGGSLRLSCASSGSTMPAYTMGWYRQAPGKERELVADISRRGGSTYYADSVKGRFTISRDNAKNNVYLHMNSLKPEDTPVYYCATTAKKSYDYWGQGTHVTVSS	high polyreactivity
QVQIVESGGGLVQAGGSLRLSCPASGLTFAWYAMGWYRQAPWTERELVAAINRSGGSTSYADSVKGRFTISRDNAMNTVYLQMNSLKPEDTAVYYCAAQLGYTTLGLIYWGQGTQVTVSS	low polyreactivity
